Target: DTX3L RD (RING-DTC) (Homo sapiens, UniProt Q8TDB6 544-740)
Assay: EMSA; 5 mM Mg2+; protein 0.5, 1, 2 uM; RNA 0.5 uM; EMSA: 20 mM HEPES pH 7.5, 50 mM KCl, 5 mM MgCl2, 1 mM DTT, on ice 0.5 h, 6% native PAGE
Conditions: protein: recombinant; label: 3' Cy3; single strand

Chain of DTX3L RD (RING-DTC) (Q8TDB6 544-740): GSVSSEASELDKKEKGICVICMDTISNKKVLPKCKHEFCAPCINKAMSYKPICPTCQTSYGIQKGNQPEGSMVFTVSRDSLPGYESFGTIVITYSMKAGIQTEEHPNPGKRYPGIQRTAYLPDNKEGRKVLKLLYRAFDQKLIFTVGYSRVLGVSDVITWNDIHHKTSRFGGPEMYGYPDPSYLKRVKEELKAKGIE

GUGGCGCGGAGACUUAGAGAAAUUGUGAUCAGGAA (ssRNA, 5' phosphate) [E35_5'P_RNA_3Cy3]
binding result: no binding

Source: PMC10810221, “DELTEX E3 ligases ubiquitylate ADP-ribosyl modification on nucleic acids”
